{"source": "patent US20060210568A1", "about": "“Methods and compositions for cancer treatment” (priority 2003, published 2006)", "molecules": {"B1": {"name": "ADRP: 50-kDa adipose differentiation related protein, over-expressed in MCF-7 cells by transfection with mouse ADRP pcDNA3 construct (protein, UniProt P43883 2-425, looked up)", "Perilipin-2": "AAAVVDPQQSVVMRVANLPLVSSTYDLVSSAYVSTKDQYPYLRSVCEMAEKGVKTVTSAAMTSALPIIQKLEPQIAVANTYACKGLDRMEERLPILNQPTSEIVASARGAVTGAKDVVTTTMAGAKDSVASTVSGVVDKTKGAVTGSVERTKSVVNGSINTVLGMVQFMNSGVDNAITKSELLVDQYFPLTQEELEMEAKKVEGFDMVQKPSNYERLESLSTKLCSRAYHQALSRVKEAKQKSQETISQLHSTVHLIEFARKNMHSANQKIQGAQDKLYVSWVEWKRSIGYDDTDESHCVEHIESRTLAIARNLTQQLQTTCQTVLVNAQGLPQNIQDQAKHLGVMAGDIYSVFRNAASFKEVSDGVLTSSKGQLQKMKESLDEVMDYFVNNTPLNWLVGPFYPQSTEVNKASLKVQQSEVKAQ", "modifications": "expressed from pcDNA3", "notes": "50-kDa adipose differentiation related protein, over-expressed in MCF-7 cells by transfection with mouse ADRP pcDNA3 construct"}}, "type_in_all_cases": "cell-based, human", "key": {"bcl-2": {"system": "bcl-2", "assay": "bcl-2 expression in ADRP MCF-7 versus control MCF-7 cells", "conditions": "ADRP overexpressing versus empty vector control cells, FIG. 5", "text": "This is shown by down-regulation of bcl-2 in ADRP MCF-7 cells when compared to control MCF-7 cells. […] In other words, ADRP overexpression sensitizes the cells to apoptotic stimuli."}, "[1]": {"system": "beta casein expression in MCF-7 cells", "assay": "beta casein expression by RT-PCR as marker of breast cancer cell differentiation", "conditions": "versus control cells with no detectable level, FIG. 3A", "text": "We then explored whether growth inhibition of cells overexpressing ADRP was accompanied by stimulated differentiation of the cells. In order to investigate this possibility, we measured the expression of markers of differentiation such as beta casein in the ADRP expressing cells when compared to EV cells. Beta casein is routinely used as a marker of mammary epithelial cell differentiation. We show by RT-PCR that the ADRP overexpressing cells express high level of casein mRNA. In contrast, the control cells had no detectable level of the gene product (see FIG. 3A). In FIG. 3A, GAPDH (Glyceraldehyde-3-phosphate dehydrogenase) loading was used as an internal control for equal sample mRNA expression. […] Measurement of Beta casein expression as marker of breast cancer cell differentiation was by RT-PCR as described above."}, "MCF-7 cells [2]": {"system": "MCF-7 cells", "assay": "FACS analysis of apoptosis and G1 phase", "conditions": "ADRP-MCF-7 versus EV-MCF-7 cells", "text": "Increased of percentage of cells in apoptosis and in G1 phase is shown by FACS analysis of ADRP-MCF-7 cells and EV-MCF-7 cells."}, "MCF-7 cells [3]": {"system": "MCF-7 cells", "assay": "Oil Red O staining of lipid droplets", "conditions": "ADRP overexpressing versus EV MCF-7 cells, FIG. 4B", "method": "This is also supported by the fact that ADRP overexpressing cells accumulated lipid droplets at a higher level (higher number of droplets per cells and higher number of cells having droplets than the empty vector control MCF-7 cells as shown in FIG. 4A and FIG. 4B. A 5-fold increase in lipid droplets accumulation was observed (FIG. 4B). Specifically, cells were plated at the concentration of 2×10^5 per 35-mm dish in 5% FBS DMEM/F12. After 48 h of incubation, cells were washed once with PBS and fixed in 4% formalin for 30 min. Oil Red O working solution was added to cover all the cells, and the cells were incubated at 37° C. for 1 h. The Working Solution was prepared by mixing 6 ml 0.5% Oil Red O in isopropanol with 4 ml H2O, and centrifuging at 4000 g for 10 min to remove sediments. The plates were washed with tap water twice. Cells were counterstained by Hematoxylin QS (Vector Laboratories, California) for 45 sec, and washed with tap water."}, "[4]": {"system": "ADRP overexpressing cells (MCF7-C4)", "assay": "proliferation assay, ADRP overexpressing MCF-7 cells", "conditions": "serum containing medium, with or without hormones and growth factors, FIGS. 1 and 2", "method": "The vector used to over-express ADRP in MCF-7 cells is the ADRP-pcDNA3 vector described in Gao and Serrero, 1999. The G418 resistance gene was used as selectable marker. MCF-7 cells were transfected with the ADRP-pcDNA3 plasmid, using the lipofectamine method. Specifically, MCF-7 cells (WT) were plated onto 60-mm dish at the concentration of 2×10^5 cell per plate in 5% fetal bovine serum (FBS) in DMEM/F12 (1:1 mixture of Dulbecco's modified Eagle's medium and Ham' nutrient F12 medium) overnight before transfection. Cells were washed once with serum-free DMEM/F12 (without antibiotic). The lipofectamine method was used for the transfection. Specifically, 2 μg mouse ADRP pcDNA3 construct was used. Transfection was carried on according to manufacturer's recommendations, with 15 μl of lipofectamine and 5 hours of incubation. After transfection, the medium was replaced with 5% FBS DMEM/F12 and the cells were incubated overnight. G418 at the concentration of 800 μg/ml was added the day after for selection. Cells were selected with this medium for 3 weeks. Six clones were isolated and subjected to RT-PCR to determine the existence of the transfection construct. […] Cell numbers were counted by hemacytometer every two days. […]"}}, "note": "“Also recorded” adds a separate entry of the source.", "data": [{"molecule": "B1", "values": [{"measurement": "Bcl-2 expression", "setting": "bcl-2", "result": "dramatically decreased; also recorded: much lower level"}, {"measurement": "casein mRNA expression in ADRP overexpressing cells", "setting": "[1]", "result": "stimulation of casein expression; also recorded: high level"}, {"measurement": "percentage of cells in apoptosis and in G1 phase", "setting": "MCF-7 cells [2]", "result": "Increased"}, {"measurement": "increase in lipid droplets accumulation", "setting": "MCF-7 cells [3]", "result": "~5", "unit": "fold"}, {"measurement": "growth of cells over-expressing ADRP", "setting": "[4]", "result": "grow very slowly"}]}]}
